Values joined by “and” are separate entries in the source; they are usually repeats but may differ in a detail not shown here. Equal entries are not always repeated.
Target: T1, PD-1 (as used in the competitive ELISA) (UniProt Q15116 25-167, limits assumed)
T1 construct: PD-1 is inferred as the target from the next sentence on PD-1 receptor occupancy
Assay: competitive ELISA; competing ligand not named

IC50: 3 nM and ~0.5 µg/mL
B1: toripalimab (antibody, human IgG4 S228P, kappa, V domains shown)
VH: QGQLVQSGAEVKKPGASVKVSCKASGYTFTDYEMHWVRQAPIHGLEWIGVIESETGGTAYNQKFKGRVTITADKSTSTAYMELSSLRSEDTAVYYCAREGITTVATTYYWYFDVWGQGTTVTVSS
VL: DVVMTQSPLSLPVTLGQPASISCRSSQSIVHSNGNTYLEWYLQKPGQSPQLLIYKVSNRFSGVPDRFSGSGSGTDFTLKISRVEAEDVGVYYCFQGSHVPLTFGQGTKLEIKR
notes: Humanized IgG4 mAb; also called JS001; anti-PD-1 antibody toripalimab
